Data reported in patent publication US20020182666.

Columns and labels:
[1] = target: T1, recombinant human full-length TyrRS with C-terminal tag of six histidine residues
T1 chain: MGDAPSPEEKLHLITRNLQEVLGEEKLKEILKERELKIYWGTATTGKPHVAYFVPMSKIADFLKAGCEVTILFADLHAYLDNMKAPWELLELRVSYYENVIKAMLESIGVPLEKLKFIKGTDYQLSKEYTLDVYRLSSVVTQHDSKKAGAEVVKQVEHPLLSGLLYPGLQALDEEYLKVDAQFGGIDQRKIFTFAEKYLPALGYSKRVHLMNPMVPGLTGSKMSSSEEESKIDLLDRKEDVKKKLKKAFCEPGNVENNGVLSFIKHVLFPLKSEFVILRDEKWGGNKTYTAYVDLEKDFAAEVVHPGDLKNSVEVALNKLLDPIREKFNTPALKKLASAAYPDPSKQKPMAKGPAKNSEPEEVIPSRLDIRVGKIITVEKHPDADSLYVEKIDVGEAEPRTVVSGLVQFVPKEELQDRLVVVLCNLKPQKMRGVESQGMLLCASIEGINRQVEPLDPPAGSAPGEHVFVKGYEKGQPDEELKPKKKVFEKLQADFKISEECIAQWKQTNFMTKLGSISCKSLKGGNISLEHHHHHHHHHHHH

[2] = target: T2, recombinant human full-length TrpRS with C-terminal tag of six histidine residues
T2 chain: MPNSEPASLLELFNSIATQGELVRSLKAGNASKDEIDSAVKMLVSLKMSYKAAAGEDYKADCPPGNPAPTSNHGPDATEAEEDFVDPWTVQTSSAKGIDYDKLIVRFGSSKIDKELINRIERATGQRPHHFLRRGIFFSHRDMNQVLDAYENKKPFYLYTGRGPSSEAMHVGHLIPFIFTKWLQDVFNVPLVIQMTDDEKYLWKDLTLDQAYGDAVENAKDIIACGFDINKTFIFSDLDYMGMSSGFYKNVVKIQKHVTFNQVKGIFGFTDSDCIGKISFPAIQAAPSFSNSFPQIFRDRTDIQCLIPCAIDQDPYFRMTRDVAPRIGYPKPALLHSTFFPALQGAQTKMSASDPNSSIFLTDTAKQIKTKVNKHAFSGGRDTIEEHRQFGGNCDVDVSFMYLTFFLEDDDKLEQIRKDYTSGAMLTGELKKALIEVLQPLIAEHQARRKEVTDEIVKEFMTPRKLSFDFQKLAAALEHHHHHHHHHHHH

B1: PMN elastase (protein)
chain: IVGGRRARPHAWPFMVSLQLRGGHFCGATLIAPNFVMSAAHCVANVNVRAVRVVLGAHNLSRREPTRQVFAVQRIFENGYDPVNLLNDIVILQLNGSATINANVQVAQLPAQGRRLGNGVQCLAMGWGLLGRNRGIASVLQELNVTVVTSLCRRSNVCTLVRGRQAGVCFGDSGSPLVCNGLIHGIASFVRGGCASGLYPDAFAPVAQFVNWIDSIIQ
In the case of B1, the “cleavage of full-length TyrRS by PMN elastase (SDS-PAGE, immunoblot)” value [1] is reported as “the addition of PMN elastase to full-length TyrRS generated a doublet of ~40 kD fragments and a ~24 kD fragment” and the “cleavage of full-length TrpRS by PMN elastase (SDS-PAGE)” value [2] is reported as “PMN elastase cleavage of the 54 kDa full-length TrpRS generated a major fragment of 47 kDa and a minor fragment of 44 kDa”.
